Blank lines part the entries; values can stand above or below the binder they belong to.
Legend:
mouse C5 = molecular target: T1, mouse C5 (mouse, UniProt P06684 19-674; P06684 679-1680); experiment: SPR, anti-Fc capture, pH 7.4; pH 7.4
T1 construct: also called purified mouse C5
Protocol: Briefly, anti-human Fc (KPL, catalogue number: 01-10-20) diluted to 0.1 mg/mL in 10 mM sodium acetate pH 5.0, was immobilized on two flow cells of a CM5 chip for 8 minutes by amine coupling. The antibodies were diluted to 0.25 μg/mL in running buffer (HBS-EP; 0.01 M HEPES pH 7.4, 0.15 M NaCl, 3 mM EDTA, 0.005% v/v Surfactant P20; GE Life Sciences, catalogue number: BR1001-88). The diluted antibody was then injected on one flow cell followed by an injection of 6 nM mouse C5 on both cells. The second flow cell was used as a reference surface. The binding was evaluated at pH 7.4 and pH 6.0. The surface was regenerated each time with 20 mM HCl, 0.01% P20. The data was processed with a 1:1 Langmuir model using BIAevaluation 4.1 software with ‘double referencing’.

complement component C1q = complement component C1q (UniProt P02745 23-245; P02746 28-253; P02747 29-245); experiment: biolayer interferometry
[1] = molecular target: T2, human neonatal Fc receptor (FcRn) (human, UniProt P55899 24-297; P61769 21-119, limits assumed); experiment: SPR, F(ab')2 capture, pH 6.0
T2 construct: also called hFcRn; human FcRn
Description: The data were processed with a 1:1 Langmuir model using BIAevaluation 4.1 software (BIAcore AB, Uppsala, Sweden) with ‘double referencing’.

Human FcγRIIa (CD32a) [2] = molecular target: T3, Human FcγRIIa (CD32a) (human, UniProt P12318 36-218, limits assumed); experiment: SPR, antibody immobilized, monomeric FcγR injected, steady state, pH 7.4
T3 construct: Bought reagent; not shown: 6x histidine tag
T3 sequence (looked up): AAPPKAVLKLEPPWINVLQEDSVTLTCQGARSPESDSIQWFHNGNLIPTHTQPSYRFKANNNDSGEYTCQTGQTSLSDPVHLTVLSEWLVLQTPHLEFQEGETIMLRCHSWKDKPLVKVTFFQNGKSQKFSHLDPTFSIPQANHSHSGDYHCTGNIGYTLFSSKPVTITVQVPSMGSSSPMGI

Human FcγRI (CD64) [3] = molecular target: T4, Human FcγRI (CD64) (human, UniProt P12314 16-288, limits assumed); experiment: SPR, antibody immobilized, monomeric FcγR injected, steady state, pH 7.4; SPR, monomeric FcγR
T4 construct: Bought reagent; also called FcγR1; not shown: 6x histidine tag

[4] = molecular target: T5, Human FcγRIIb/c (CD32b/c) (human, UniProt P31994 46-217, limits assumed); experiment: as above
T5 construct: Bought reagent; not shown: 6x histidine tag
T5 sequence (looked up): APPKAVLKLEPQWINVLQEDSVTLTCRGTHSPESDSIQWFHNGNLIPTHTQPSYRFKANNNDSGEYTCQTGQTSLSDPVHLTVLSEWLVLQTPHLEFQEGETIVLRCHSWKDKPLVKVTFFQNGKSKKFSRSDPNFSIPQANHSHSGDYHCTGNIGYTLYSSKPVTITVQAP

Human FcγRIIIa (CD16a) [5] = molecular target: T6, Human FcγRIIIa (CD16a) (human, UniProt P08637 17-208, limits assumed); experiment: as above
T6 construct: Bought reagent; not shown: 6x histidine tag

Human FcγRIIIb (CD16b) [6] = molecular target: T7, Human FcγRIIIb (CD16b) (human, UniProt O75015 17-200, limits assumed); experiment: as above
T7 construct: Bought reagent; not shown: 6x histidine tag

Human FcγRIIa (CD32a) [7] = molecular target: T3, Human FcγRIIa (CD32a); experiment: ELISA, multimeric antibody immune complexes on His-tagged FcγRIIa; reference not named (IgG1 control implied)
Protocol: Microtiter plates pre-coated with Ni-NTA (Qiagen) were incubated with 50 μL/well of 6× histidine-tagged human FcγRs (FcγRI, FcγRIIa, FcγRIIb/c, FcγRIIIa or FcγRIIIb), at a receptor concentration of 5 μg/mL in PBS, overnight at 4° C. The plate was then washed 3 times with PBS/0.05% Tween-20. After washing, 50 μL of antibody complexes in PBS/0.05% Tween-20 were incubated in the plate for 60 min at room temperature (RT). After washing the plate with PBS/0.05% Tween-20, 50 μL of streptavidin-HRP (Invitrogen) in PBS/0.05% Tween-20 was added to the plate and incubated for 60 min at RT. Following this incubation and washes, 75 μL of TMB-ELISA substrate (3,3′,5,5′-tetramethylbenzidine, Thermo Scientific) was added. The reaction was stopped with 75 μL of 2 M H₂SO₄, and the absorbance read at 450 nm.
Samples were run in duplicate and data were presented as mean values. […] The absorbance at 450 nm of each concentration of antibody immune complex or in the absence of antibody immune complexes plotted as a graphical representation.

[8] = molecular target: T8, human hypercalcemia of malignancy peptide, amino acid residues 1-34 (human, UniProt P12272 37-70); experiment: immunofluorescent staining of UV-resin spot slides
T8 construct: range 1-34; Negative control material on UV-resin spot slides; also called PTHrP 1-34

[9] = molecular target: T5, Human FcγRIIb/c (CD32b/c); experiment: SPR, antibody immobilized, monomeric FcγR injected, steady state, pH 7.4
Protocol: (§1) A second flow cell was used as a reference surface. Concentrations of FcγRs diluted in running buffer (HBS-EP, pH 7.4) were injected on both cells. The surface was regenerated each cycle with 20 mM HCl, 0.01% P20. The data was analyzed using a steady state affinity model in BIAevaluation 4.1 software (BIAcore AB, Uppsala, Sweden) with ‘double referencing’.

Human FcγRIIIa (CD16a) [10] = molecular target: T6, Human FcγRIIIa (CD16a); experiment: as above
Protocol: as §1

Human FcγRIIIb (CD16b) [11] = molecular target: T7, Human FcγRIIIb (CD16b); experiment: as above
Protocol: as §1

Human FcγRI (CD64) [12] = molecular target: T4, Human FcγRI (CD64); experiment: SPR, antibody immobilized, single cycle kinetics, pH 7.4; Table 16 cell under the head KD [µM]
Protocol: The antibody was diluted in 10 mM sodium acetate at pH 5.0 and directly immobilized on one flow cell of a CM5 chip by amine coupling. A second flow cell was used as a reference surface. Concentrations of FcγR1 diluted in running buffer (HBS-EP, pH 7.4) were injected on both cells. This assay required no regeneration. The data was analyzed using a titration kinetics 1:1 model in BIAevaluation 4.1 (Biacore AB, Uppsala, Sweden) software with ‘double referencing’.

[13] = molecular target: T9, human complement component C5 (human, UniProt P01031 19-673; P01031 678-1676); experiment: SPR
T9 construct: mature; Native purified protein; also called human C5; hC5

[14] = molecular target: T9, human complement component C5; experiment: SPR, pH 6.0
[15] = molecular target: T9, human complement component C5; experiment: SPR, pH 7.4

T1 sequence (P06684 19-674 limits assumed, chain 1 of 2): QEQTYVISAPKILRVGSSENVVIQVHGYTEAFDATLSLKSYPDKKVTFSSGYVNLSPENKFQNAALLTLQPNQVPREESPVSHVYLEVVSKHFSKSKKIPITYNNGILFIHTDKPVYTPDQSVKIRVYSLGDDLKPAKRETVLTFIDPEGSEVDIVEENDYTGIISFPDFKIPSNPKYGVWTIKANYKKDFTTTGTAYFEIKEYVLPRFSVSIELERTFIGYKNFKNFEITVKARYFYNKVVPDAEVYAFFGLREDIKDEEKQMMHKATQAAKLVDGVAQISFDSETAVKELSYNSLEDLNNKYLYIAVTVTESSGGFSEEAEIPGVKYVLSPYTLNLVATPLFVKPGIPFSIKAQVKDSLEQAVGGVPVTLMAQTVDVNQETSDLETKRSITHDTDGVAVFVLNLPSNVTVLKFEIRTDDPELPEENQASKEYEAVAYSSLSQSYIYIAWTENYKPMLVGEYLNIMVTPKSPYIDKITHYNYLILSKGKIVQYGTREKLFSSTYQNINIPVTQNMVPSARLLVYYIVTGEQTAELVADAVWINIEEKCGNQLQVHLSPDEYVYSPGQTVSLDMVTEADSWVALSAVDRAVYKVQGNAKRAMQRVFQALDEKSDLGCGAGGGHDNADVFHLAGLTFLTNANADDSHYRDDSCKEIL
T1 sequence (P06684 679-1680 limits assumed, chain 2 of 2): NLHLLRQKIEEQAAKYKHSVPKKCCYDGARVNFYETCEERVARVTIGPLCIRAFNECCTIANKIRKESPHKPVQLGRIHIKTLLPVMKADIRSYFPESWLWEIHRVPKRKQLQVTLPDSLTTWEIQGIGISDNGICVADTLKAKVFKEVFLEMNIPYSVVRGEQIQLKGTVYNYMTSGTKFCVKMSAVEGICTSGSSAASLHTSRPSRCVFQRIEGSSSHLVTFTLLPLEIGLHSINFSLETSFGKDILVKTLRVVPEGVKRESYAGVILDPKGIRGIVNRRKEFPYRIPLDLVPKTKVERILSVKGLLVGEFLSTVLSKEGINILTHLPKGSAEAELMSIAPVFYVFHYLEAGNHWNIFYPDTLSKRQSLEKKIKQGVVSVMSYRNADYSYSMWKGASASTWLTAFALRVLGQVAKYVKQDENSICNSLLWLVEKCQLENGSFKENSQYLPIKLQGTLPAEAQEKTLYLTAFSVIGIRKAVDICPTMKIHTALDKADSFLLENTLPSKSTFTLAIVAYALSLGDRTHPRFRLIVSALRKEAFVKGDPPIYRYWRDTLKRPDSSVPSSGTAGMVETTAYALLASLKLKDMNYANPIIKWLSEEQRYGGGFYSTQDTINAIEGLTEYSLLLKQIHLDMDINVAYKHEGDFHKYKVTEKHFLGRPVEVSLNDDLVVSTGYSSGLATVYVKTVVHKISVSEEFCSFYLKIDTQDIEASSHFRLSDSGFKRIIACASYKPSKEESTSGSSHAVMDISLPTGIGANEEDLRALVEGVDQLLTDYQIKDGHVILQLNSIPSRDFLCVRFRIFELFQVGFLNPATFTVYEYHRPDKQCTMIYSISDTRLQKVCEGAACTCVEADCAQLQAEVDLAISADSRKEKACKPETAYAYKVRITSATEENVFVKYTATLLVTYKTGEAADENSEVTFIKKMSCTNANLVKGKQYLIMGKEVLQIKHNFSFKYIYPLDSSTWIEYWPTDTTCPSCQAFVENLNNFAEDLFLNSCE
T6 sequence (P08637 17-208 limits assumed): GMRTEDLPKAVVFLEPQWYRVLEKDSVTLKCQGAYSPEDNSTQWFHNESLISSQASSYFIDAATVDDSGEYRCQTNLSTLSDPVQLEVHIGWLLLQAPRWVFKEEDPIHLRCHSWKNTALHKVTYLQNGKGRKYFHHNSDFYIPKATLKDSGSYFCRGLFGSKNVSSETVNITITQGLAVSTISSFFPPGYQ
Chain of complement component C1q (P02745 23-245, chain 1 of 3): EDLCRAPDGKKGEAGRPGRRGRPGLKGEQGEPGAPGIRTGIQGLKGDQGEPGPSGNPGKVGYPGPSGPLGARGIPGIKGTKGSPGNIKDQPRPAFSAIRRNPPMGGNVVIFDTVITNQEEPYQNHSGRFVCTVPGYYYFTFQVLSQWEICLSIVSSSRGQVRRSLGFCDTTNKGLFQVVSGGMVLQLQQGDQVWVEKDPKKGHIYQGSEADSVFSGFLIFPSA
Chain of complement component C1q (P02746 28-253, chain 2 of 3): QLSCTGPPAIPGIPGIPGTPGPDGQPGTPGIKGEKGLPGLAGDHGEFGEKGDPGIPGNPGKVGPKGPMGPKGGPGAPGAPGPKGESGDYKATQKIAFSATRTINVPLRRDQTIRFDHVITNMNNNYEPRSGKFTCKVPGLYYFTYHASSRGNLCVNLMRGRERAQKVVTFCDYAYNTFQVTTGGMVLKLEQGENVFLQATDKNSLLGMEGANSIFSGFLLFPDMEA
Chain of complement component C1q (P02747 29-245, chain 3 of 3): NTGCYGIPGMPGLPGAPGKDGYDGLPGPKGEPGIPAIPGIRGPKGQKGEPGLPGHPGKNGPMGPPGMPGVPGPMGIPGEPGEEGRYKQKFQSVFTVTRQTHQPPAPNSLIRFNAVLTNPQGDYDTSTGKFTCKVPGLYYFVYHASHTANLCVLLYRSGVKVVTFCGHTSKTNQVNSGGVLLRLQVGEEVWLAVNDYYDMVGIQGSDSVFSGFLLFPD
T7 sequence (O75015 17-200 limits assumed): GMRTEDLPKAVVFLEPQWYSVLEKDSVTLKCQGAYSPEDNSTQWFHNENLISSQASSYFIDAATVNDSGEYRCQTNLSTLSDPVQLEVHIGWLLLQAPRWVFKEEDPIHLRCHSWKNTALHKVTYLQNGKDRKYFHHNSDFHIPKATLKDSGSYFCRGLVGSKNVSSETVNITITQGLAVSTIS
T4 sequence (P12314 16-288 limits assumed): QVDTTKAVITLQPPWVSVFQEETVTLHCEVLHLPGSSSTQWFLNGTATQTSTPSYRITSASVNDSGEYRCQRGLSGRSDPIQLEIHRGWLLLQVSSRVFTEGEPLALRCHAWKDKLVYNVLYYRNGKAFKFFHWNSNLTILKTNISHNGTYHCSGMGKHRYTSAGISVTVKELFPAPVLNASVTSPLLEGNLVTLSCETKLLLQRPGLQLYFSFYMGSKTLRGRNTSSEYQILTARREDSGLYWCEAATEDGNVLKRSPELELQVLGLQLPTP

B1: BHL006 (antibody, human IgG2, kappa)
heavy: QVQLQQPGAELVRPGTSVKLSCKASGYTFTSSWMHWVKQRPGQGLEWIGVIDPHDSYTNYNQKFKGKATLTVDTSSSTAYMQLSSLTSEDSAVYYCARGGGSSYNRYFDVWGTGTTVTVSSASTKGPSVFPLAPCSRSTSESTAALGCLVKDYFPEPVTVSWNSGALTSGVHTFPAVLQSSGLYSLSSVVTVPSSNFGTQTYTCNVDHKPSNTKVDKTVERKCCVECPPCPAPPVAGPSVFLFPPKPKDTLMISRTPEVTCVVVDVSQEDPEVQFNWYVDGVEVHNAKTKPREEQFNSTYRVVSVLTVLHQDWLNGKEYKCKVSNKGLPSSIEKTISKAKGQPREPQVYTLPPSQEEMTKNQVSLTCLVKGFYPSDIAVEWESNGQPENNYKTTPPVLDSDGSFFLYSRLTVDKSRWQEGNVFSCSVMHEALHNHYTQKSLSLSLGK
light: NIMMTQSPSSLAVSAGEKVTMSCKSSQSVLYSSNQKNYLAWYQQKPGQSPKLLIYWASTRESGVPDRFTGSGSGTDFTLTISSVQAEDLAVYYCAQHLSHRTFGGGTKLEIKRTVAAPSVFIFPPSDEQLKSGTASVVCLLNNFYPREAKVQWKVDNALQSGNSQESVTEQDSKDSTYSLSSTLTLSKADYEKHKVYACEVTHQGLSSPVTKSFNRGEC
notes: BHL011 with three histidine substitutions in the murine variable regions; also called pH-dependent variant of BHL011
Kd (mouse C5): 3.49 nM
koff (mouse C5): 0.00102 s⁻¹
kon (mouse C5): 293000 M⁻¹ s⁻¹

B2: BHL009 (antibody, human IgG2, kappa)
heavy: QVQLQQPGAELVRPGTSVKLSCKASGYTFTSSWMHWVKQRPGQGLEWIGVIDPHDSYTNYNQKFKGKATLTVDTSSSTAYMQLSSLTSEDSAVYYCARGGGSSYNRYFDVWGTGTTVTVSSASTKGPSVFPLAPCSRSTSESTAALGCLVKDYFPEPVTVSWNSGALTSGVHTFPAVLQSSGLYSLSSVVTVPSSNFGTQTYTCNVDHKPSNTKVDKTVERKCCVECPPCPAPPVAGPSVFLFPPKPKDTLMISRTPEVTCVVVDVSQEDPEVQFNWYVDGVEVHNAKTKPREEQFNSTYRVVSVLTVLHQDWLNGKEYKCKVSNKGLPSSIEKTISKAKGQPREPQVYTLPPSQEEMTKNQVSLTCLVKGFYPSDIAVEWESNGQPENNYKTTPPVLDSDGSFFLYSRLTVDKSRWQEGNVFSCSVLHEALHSHYTQKSLSLSLGK
light: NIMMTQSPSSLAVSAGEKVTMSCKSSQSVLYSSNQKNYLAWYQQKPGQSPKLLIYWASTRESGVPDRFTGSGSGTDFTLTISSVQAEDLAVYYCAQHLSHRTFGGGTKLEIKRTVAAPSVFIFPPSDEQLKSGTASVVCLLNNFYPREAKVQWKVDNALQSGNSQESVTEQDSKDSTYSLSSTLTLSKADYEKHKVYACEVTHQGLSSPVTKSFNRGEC
notes: BHL006 with M428L, N434S in the human heavy chain constant region
Kd (mouse C5): 4.19 nM
koff (mouse C5): 0.00109 s⁻¹
kon (mouse C5): 261000 M⁻¹ s⁻¹

B3: BNJ441 (antibody, human IgG2, kappa)
heavy: QVQLVQSGAEVKKPGASVKVSCKASGHIFSNYWIQWVRQAPGQGLEWMGEILPGSGHTEYTENFKDRVTMTRDTSTSTVYMELSSLRSEDTAVYYCARYFFGSSPNWYFDVWGQGTLVTVSSASTKGPSVFPLAPCSRSTSESTAALGCLVKDYFPEPVTVSWNSGALTSGVHTFPAVLQSSGLYSLSSVVTVPSSNFGTQTYTCNVDHKPSNTKVDKTVERKCCVECPPCPAPPVAGPSVFLFPPKPKDTLMISRTPEVTCVVVDVSQEDPEVQFNWYVDGVEVHNAKTKPREEQFNSTYRVVSVLTVLHQDWLNGKEYKCKVSNKGLPSSIEKTISKAKGQPREPQVYTLPPSQEEMTKNQVSLTCLVKGFYPSDIAVEWESNGQPENNYKTTPPVLDSDGSFFLYSRLTVDKSRWQEGNVFSCSVLHEALHSHYTQKSLSLSLGK
light: DIQMTQSPSSLSASVGDRVTITCGASENIYGALNWYQQKPGKAPKLLIYGATNLADGVPSRFSGSGSGTDFTLTISSLQPEDFATYYCQNVLNTPLTFGQGTKVEIKRTVAAPSVFIFPPSDEQLKSGTASVVCLLNNFYPREAKVQWKVDNALQSGNSQESVTEQDSKDSTYSLSSTLTLSKADYEKHKVYACEVTHQGLSSPVTKSFNRGEC
notes: IgG2/G4, kappa; also called BNJ441 antibody; BNJ441 engineering batch
binding result (complement component C1q): no binding
fold increase in affinity compared to eculizumab [1]: ~10 fold
Kd (Human FcγRIIa (CD32a) [2]): 2310 nM
Kd (Human FcγRI (CD64) [3]): 3750 nM
Kd [4]: 8090 nM
Kd (Human FcγRIIIa (CD16a) [5]): 7230 nM
Kd (Human FcγRIIIb (CD16b) [6]): 3330 nM
fold weaker association (Human FcγRIIa (CD32a) [7]): 4 fold

B7: EHL004 (antibody, V domains shown)
VH: QVQLVQSGAEVKKPGASVKVSCKASGYIFSNYWIQWVRQAPGQGLEWMGEILPGSGHTEYTENFKDRVTMTRDTSTSTVYMELSSLRSEDTAVYYCARYFFGSSPNWYFDVWGQGTLVTVSS
VL: DIQMTQSPSSLSASVGDRVTITCGASENIYHALNWYQQKPGKAPKLLIYGATNLADGVPSRFSGSGSGTDFTLTISSLQPEDFATYYCQNVLNTPLTFGQGTKVEIK
notes: The VH cell prints only 'S57H'
ratio of KD at pH 6.0/pH 7.4 [13]: 2770
Kd [14]: 374 nM
Kd [15]: 0.135 nM

More lines, now with the values ahead:

binding result [8]: no binding
B4: BNJ441-FITC (antibody, human IgG2, kappa)
heavy: QVQLVQSGAEVKKPGASVKVSCKASGHIFSNYWIQWVRQAPGQGLEWMGEILPGSGHTEYTENFKDRVTMTRDTSTSTVYMELSSLRSEDTAVYYCARYFFGSSPNWYFDVWGQGTLVTVSSASTKGPSVFPLAPCSRSTSESTAALGCLVKDYFPEPVTVSWNSGALTSGVHTFPAVLQSSGLYSLSSVVTVPSSNFGTQTYTCNVDHKPSNTKVDKTVERKCCVECPPCPAPPVAGPSVFLFPPKPKDTLMISRTPEVTCVVVDVSQEDPEVQFNWYVDGVEVHNAKTKPREEQFNSTYRVVSVLTVLHQDWLNGKEYKCKVSNKGLPSSIEKTISKAKGQPREPQVYTLPPSQEEMTKNQVSLTCLVKGFYPSDIAVEWESNGQPENNYKTTPPVLDSDGSFFLYSRLTVDKSRWQEGNVFSCSVLHEALHSHYTQKSLSLSLGK
light: DIQMTQSPSSLSASVGDRVTITCGASENIYGALNWYQQKPGKAPKLLIYGATNLADGVPSRFSGSGSGTDFTLTISSLQPEDFATYYCQNVLNTPLTFGQGTKVEIKRTVAAPSVFIFPPSDEQLKSGTASVVCLLNNFYPREAKVQWKVDNALQSGNSQESVTEQDSKDSTYSLSSTLTLSKADYEKHKVYACEVTHQGLSSPVTKSFNRGEC
modifications: fluoresceinated (FITC); sites not stated
notes: also called fluoresceinated BNJ441

Kd (Human FcγRIIa (CD32a) [2]): 800 nM
Kd [9]: 3060 nM
Kd (Human FcγRIIIa (CD16a) [10]): 850 nM
Kd (Human FcγRIIIb (CD16b) [11]): 1890 nM
Kd (Human FcγRI (CD64) [12]): 0.123 nM
B5: h5G1.1-IgG1 (antibody)
heavy: not shown
light: DIQMTQSPSSLSASVGDRVTITCGASENIYGALNWYQQKPGKAPKLLIYGATNLADGVPSRFSGSGSGTDFTLTISSLQPEDFATYYCQNVLNTPLTFGQGTKVEIKRTVAAPSVFIFPPSDEQLKSGTASVVCLLNNFYPREAKVQWKVDNALQSGNSQESVTEQDSKDSTYSLSSTLTLSKADYEKHKVYACEVTHQGLSSPVTKSFNRGEC
notes: IgG1 isotype antibody with the same humanized variable region as eculizumab; light chain identical to that of eculizumab and BNJ441; also called h5G1.1-hG1; IgG1 isotype control

binding result (complement component C1q): no binding
Kd (Human FcγRIIa (CD32a) [2]): 2580 nM
Kd [4]: 9840 nM
fold weaker association (Human FcγRIIa (CD32a) [7]): 8 fold
B6: eculizumab (antibody, human IgG2, kappa)
heavy: QVQLVQSGAEVKKPGASVKVSCKASGYIFSNYWIQWVRQAPGQGLEWMGEILPGSGSTEYTENFKDRVTMTRDTSTSTVYMELSSLRSEDTAVYYCARYFFGSSPNWYFDVWGQGTLVTVSSASTKGPSVFPLAPCSRSTSESTAALGCLVKDYFPEPVTVSWNSGALTSGVHTFPAVLQSSGLYSLSSVVTVPSSNFGTQTYTCNVDHKPSNTKVDKTVERKCCVECPPCPAPPVAGPSVFLFPPKPKDTLMISRTPEVTCVVVDVSQEDPEVQFNWYVDGVEVHNAKTKPREEQFNSTYRVVSVLTVLHQDWLNGKEYKCKVSNKGLPSSIEKTISKAKGQPREPQVYTLPPSQEEMTKNQVSLTCLVKGFYPSDIAVEWESNGQPENNYKTTPPVLDSDGSFFLYSRLTVDKSRWQEGNVFSCSVMHEALHNHYTQKSLSLSLGK
light: DIQMTQSPSSLSASVGDRVTITCGASENIYGALNWYQQKPGKAPKLLIYGATNLADGVPSRFSGSGSGTDFTLTISSLQPEDFATYYCQNVLNTPLTFGQGTKVEIKRTVAAPSVFIFPPSDEQLKSGTASVVCLLNNFYPREAKVQWKVDNALQSGNSQESVTEQDSKDSTYSLSSTLTLSKADYEKHKVYACEVTHQGLSSPVTKSFNRGEC
notes: Humanized anti-human C5 antibody, hybrid human IgG2/G4 constant region, human kappa light chain; also called Ec293F
